Sequences and labels used below:
B4: MERS-CoV S protein receptor binding domain (RBD), England1 strain, soluble (other)
chain: EAKPSGSVVEQAEGVECDFSPLLSGTPPQVYNFKRLVFTNCNYNLTKLLSLFSVNDFTCSQISPAAIASNCYSSLILDYFSYPLSMKSDLSVSSAGPISQFNYKQSFSNPTCLILATVPHNLTTITKPLKYSYINKCSRFLSDDRTEVPQLVNANQYSPCVSIVPSTVWEDGDYYRKQLSPLEGGGWLVASGSTVAMTEQLQMGFGITVQYGTDTNSVCPKLEFANDTKIASQLGNCVEY

Experiment [1] deals with B4. Briefly: ELISA specificity (FIG. 22), told only by this label.
Experiment [2] concerns the target T1, MERS-CoV S1 protein, England1 strain, soluble (MERS-CoV, England1 strain, UniProt K9N5Q8 19-752).
T1 sequence: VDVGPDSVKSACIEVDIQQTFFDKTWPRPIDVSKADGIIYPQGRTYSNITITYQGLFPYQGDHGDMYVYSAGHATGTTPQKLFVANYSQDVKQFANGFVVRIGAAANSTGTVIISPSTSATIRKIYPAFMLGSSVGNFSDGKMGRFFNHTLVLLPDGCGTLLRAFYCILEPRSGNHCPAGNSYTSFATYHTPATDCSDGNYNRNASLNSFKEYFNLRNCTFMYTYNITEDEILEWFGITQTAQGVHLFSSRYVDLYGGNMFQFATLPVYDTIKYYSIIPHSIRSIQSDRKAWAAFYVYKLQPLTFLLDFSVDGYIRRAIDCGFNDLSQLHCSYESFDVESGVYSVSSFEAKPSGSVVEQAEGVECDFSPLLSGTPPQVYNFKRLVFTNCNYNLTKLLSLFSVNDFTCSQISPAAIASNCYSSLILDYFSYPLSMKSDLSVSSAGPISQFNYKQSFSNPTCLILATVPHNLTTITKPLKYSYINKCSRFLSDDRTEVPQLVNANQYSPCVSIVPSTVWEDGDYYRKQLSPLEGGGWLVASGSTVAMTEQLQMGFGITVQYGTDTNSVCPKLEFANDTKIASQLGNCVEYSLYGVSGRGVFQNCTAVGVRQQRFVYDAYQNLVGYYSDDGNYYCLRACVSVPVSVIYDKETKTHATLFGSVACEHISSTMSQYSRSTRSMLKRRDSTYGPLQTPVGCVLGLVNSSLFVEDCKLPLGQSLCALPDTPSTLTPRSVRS

The target of experiment [3] is T2, MERS-CoV Spike (S) glycoprotein, England1 strain, full length (MERS-CoV, England1 strain, UniProt K9N5Q8 19-1353).
T2 sequence: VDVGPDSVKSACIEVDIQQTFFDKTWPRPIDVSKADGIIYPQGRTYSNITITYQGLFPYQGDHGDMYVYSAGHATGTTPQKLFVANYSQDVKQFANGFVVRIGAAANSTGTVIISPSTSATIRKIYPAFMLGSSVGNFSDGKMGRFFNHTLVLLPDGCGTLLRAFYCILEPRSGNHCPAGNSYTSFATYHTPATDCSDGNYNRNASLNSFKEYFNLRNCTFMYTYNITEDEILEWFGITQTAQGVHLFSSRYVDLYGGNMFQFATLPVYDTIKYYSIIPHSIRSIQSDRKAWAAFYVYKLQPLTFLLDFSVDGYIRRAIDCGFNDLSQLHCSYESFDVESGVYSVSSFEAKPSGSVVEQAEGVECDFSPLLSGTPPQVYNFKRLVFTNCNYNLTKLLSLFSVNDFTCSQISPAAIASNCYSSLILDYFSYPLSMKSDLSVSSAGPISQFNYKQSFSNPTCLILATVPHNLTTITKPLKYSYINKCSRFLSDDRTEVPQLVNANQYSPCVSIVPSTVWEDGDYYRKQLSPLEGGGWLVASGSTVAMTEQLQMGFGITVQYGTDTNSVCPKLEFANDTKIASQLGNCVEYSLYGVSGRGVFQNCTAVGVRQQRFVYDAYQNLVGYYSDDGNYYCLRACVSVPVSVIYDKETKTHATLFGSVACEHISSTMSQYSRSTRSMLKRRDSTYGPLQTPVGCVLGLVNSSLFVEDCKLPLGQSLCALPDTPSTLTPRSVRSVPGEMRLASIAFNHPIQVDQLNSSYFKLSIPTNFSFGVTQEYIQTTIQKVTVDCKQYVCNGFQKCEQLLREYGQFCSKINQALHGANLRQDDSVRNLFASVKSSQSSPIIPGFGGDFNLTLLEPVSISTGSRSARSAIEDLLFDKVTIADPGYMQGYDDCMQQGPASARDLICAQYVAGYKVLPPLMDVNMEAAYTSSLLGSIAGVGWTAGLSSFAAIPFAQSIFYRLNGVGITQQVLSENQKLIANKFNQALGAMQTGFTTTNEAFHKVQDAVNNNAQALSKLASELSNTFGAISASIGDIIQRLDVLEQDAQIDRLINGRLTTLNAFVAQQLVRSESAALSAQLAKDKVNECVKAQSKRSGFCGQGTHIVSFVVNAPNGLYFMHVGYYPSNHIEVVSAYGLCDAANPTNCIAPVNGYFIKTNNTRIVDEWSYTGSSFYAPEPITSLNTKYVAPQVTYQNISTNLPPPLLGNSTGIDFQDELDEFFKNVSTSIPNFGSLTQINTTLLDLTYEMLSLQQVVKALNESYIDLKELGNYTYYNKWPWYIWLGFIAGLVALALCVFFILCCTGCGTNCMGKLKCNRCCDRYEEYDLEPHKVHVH
Put plainly: cell-based or functional assay.

Experiment [4] deals with B4. Briefly: ELISA, hybridoma supernatant. For orientation: ELISA stands for enzyme-linked immunosorbent assay.
Experiment [5] has as its target T1, MERS-CoV S1 protein, England1 strain, …. Put plainly: ELISA; x axis 'Protein concentration (µg/ml)'.
A further experiment deals with D12 antibody. Briefly: cell-based or functional assay.
Sequence of D12 antibody (VH, as listed by the source, chain 1 of 2): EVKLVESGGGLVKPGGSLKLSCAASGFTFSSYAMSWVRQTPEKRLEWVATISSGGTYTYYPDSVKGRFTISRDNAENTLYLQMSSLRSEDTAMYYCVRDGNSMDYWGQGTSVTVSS
Sequence of D12 antibody (VL, as listed by the source, chain 2 of 2): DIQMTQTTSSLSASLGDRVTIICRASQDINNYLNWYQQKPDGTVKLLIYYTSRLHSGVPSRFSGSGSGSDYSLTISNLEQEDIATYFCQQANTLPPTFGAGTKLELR
In experiment [6] the target is B4. Briefly: ELISA on RBD coated plates.
The target in experiment [7] is T1, MERS-CoV S1 protein, England1 strain, …. Briefly: ELISA on RBD, S1 or S2 coated plates.
Experiment [8] deals with B4.
For experiment [9], the target named is T1, MERS-CoV S1 protein, England1 strain, …. Briefly: ELISA, hybridoma supernatant.
Experiment [10] deals with B4. Briefly: ELISA on RBD, mAb titrated 0.0032-10 µg/ml.
In experiment [11] the target is T2, MERS-CoV Spike (S) glycoprotein, …. Briefly: cell-based or functional assay. The source holds these as a separate data set.
Experiment [12] addresses B4. Put plainly: ELISA; x axis 'Protein concentration (µg/ml)'.

B1: A10 human antibody (antibody, V domains shown)
VH: QVQLVQSGAEVKKPGSSVKVSCKASGGTFSTYALSWVRQAPGQGLEWMGGIIPIFGTANYAQKFQGRVTITADESTSTAYMELNSLRSEDTAVYYCARGSRSSSSAEYFQHWGQGTLVTVSS
VL: QSALTQPRSVSGSPGQSVTISCTGTSSDVGGYNYVSWYQQHPGKAPKLMIYDVSKRPSGVPDRFSGSKSGNTASLTISGLQAEDEADYYCCSYAGSYTLEVVFGGGTKLTVL
For the molecule B1, the binding result in [1] is “no binding”.

B2: A2 human antibody (antibody, V domains shown)
VH: QVQLVESGGGLVKPGGSLRLSCAASGFTFSDYYMSWIRQAPGKGLEWVSYISSSGSTIYYADSVKGRFTISRDNAKNSLYLQMNSLRAEDTAVYYCARVGLGSGWYDWFDPWGQGTLVTVSS
VL: QSALTQPPSVSGAPGQRVTISCTGSSSNIGASYDVHWYQHLPGTAPKLLIYGNTNRPSGVPDRFSGSKSGTSASLAITGLQAEDEADYYCQSYDSSLSGVVFSGGTKLTVL
B2: the binding result in [1] is given as “no binding”.

B3: G2 antibody (antibody, V domains shown)
VH: QVQLQQSGGELVKPGASVKLSCKTSGFTFSSSYISWLKQKPGQSLEWIAWIYAGTGGTEYNQKFTGKAQVTVDTSSSTAYMQFSSLTTEDSAIYYCARGGSSFAMDYWGQGTSVTVSS
VL: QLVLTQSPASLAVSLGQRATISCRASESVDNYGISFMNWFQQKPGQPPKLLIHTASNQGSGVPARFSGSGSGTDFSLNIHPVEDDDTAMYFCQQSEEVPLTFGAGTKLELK
Broadly, the Kd is the constant that tells how readily two partners part at equilibrium. The term koff denotes the first-order rate constant of dissociation. A higher koff goes with fast dissociation. One may read the kon as the rate constant with which the complex forms. Low readings indicate slow association, high ones fast association. The IC50 is the concentration at which inhibition is half-maximal. The term IC80 denotes the concentration needed for an effect of 80%. Broadly, the EC50 (read off the curve) is the concentration giving half of the maximal effect. Read a high EC50 (read off the curve) as a less potent agent. In experiment [2], B3 came in with a Kd of 1.69 nM, a koff of 0.000188 s⁻¹ and a kon of 111000 M⁻¹ s⁻¹. In [3], the IC50 was 0.013 µg/mL and it took 0.35 µg/mL to reach the 80% level (IC80). In addition, in experiment [4], the “ELISA (unit not given)” value was found to be 0.04 and the binding result is reported as “no binding (tested: not given (supernatant))”. Besides, the “EC50 (read off the curve)” value in experiment [5] was roughly 0.09 µg/mL.

Consider B4, for which the “IC50 (read off the curve)” value in the experiment with D12 antibody is roughly 2 µg/mL.

B5: FIB_H1 NHP antibody (antibody, V domains shown)
VH: EVQLVQSGAEVKKPGASVKVSCKASGHIFTSYVINWLQEAPGQGFEWMGGIHPGNGGRDYAQKFQGRVTITADMSTSTVYMELRSLRSEDMAVYYCAASSGSYGVSSLDVWGRGVLVTVSS
VL: QSALTQPPSLSASPGASARLPCTLSSDLSVGSKNMYWYQQKPGSAPRLFLYYYSDSDKQLGPGVPNRVSGSKETSSNTAFLLISGLQPEDEADYYCQVYDSSANWVFGGGTRLTVL
B5: the binding result in [6] is “no binding”.

B6: FIB_B2 NHP antibody (antibody, V domains shown)
VH: QVQLQESGPGLVKPSETLSLTCAVSGGSISSNYWYWIRQSPVKGLEWIGYIYGGSGGTEYNPSLKSRVTISTDTSKNQFFLKLSSVTAADTAVYYCARSFYSWNGESWGQGVVVTVSS
VL: DIQMSQTPSSLSASVGDRVTITCRASQGINDYLNWYQQKPGKAPKLLIYYGNSLASGVPSRFSGSGSGTDFSLTISSLQPEDFATYYCQQGDSFPLTFGGGTKVDIK
As for B6, the binding result is recorded as “no binding” in [6] and “binds” in experiment [7].

B7: F11 antibody (antibody, V domains shown)
VH: EVKLEESGGGLVKPGGSLKLSCAASGFTFSRYAMSWVRQTPEKRLEWVATINNGGSYSYYPDSVKGRLTISRDNAKNTLYLQMSSLRSEDTALYYCARHYDYDGYYYTMDFWGQGTSVTVSS
VL: DVLMTQIPLSLPVSLGDQASISCRSSQSIVHSNGNTYLEWYLQKPGQSPKPLIYKVSNRISGVPDRFSGSGSGTDFTLKISRVEAEDLGVYYCFQGSHVPYTFGGGTNLEIKR
As for B7, in [8], the Kd worked out at 114 nM, the koff was found to be 0.0079 s⁻¹ and the kon came to 69100 M⁻¹ s⁻¹. In addition, in [2], the affinity, expressed as Kd, was 3.49 nM; the koff was found to be 0.000391 s⁻¹; the kon worked out at 112000 M⁻¹ s⁻¹. In [3], this molecule registered an IC50 of 0.008 µg/mL and an IC80 of 0.052 µg/mL. Also, the “ELISA (unit not given)” value in experiment [9] was 2.67. In addition, the “EC50 (read off the curve)” value in experiment [10] is roughly 0.05 µg/mL.

B8: G4 antibody (antibody, V domains shown)
VH: QVQLQQSGPELVRPGVSVKISCKGSGYTFTDYAIHWVKQSHAKSLEWIGVFSTYYGNTNYNQKFKGRATMTVDKSSSTAYMELARLTSEDSAIYYCARKSYYVDYVDAMDYWGQGTSVTVSS
VL: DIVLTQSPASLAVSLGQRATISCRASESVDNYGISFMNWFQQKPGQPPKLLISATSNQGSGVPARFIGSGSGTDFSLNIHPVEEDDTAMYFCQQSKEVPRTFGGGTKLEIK
Turning to B8, the “pseudotyped MERS-CoV (England1) virus neutralization potency” value in experiment [11] is roughly 10 fold lower. In addition, the IC50 in [3] was determined as 0.133 µg/mL. The same molecule showed an IC80 in experiment [3] of 0.806 µg/mL. Besides, the “ELISA (unit not given)” value in experiment [4] was found to be 0.05; in [9], 0.06. For the same molecule, the binding result in experiment [12] and in [5] was “no binding (tested: 10 µg/ml)” each time.

For the origin of these results see patent US20180244756A1 (US Dept. of Health and Human Services, published 2018).
